Like-named read-outs stand apart in the source and are kept apart here.
Key:
[1] = target: T1, CD3 on CD3+ Jurkat cells and primary human T cells (human, UniProt P07766 23-207); assay: whole-cell ELISA on CD3+ Jurkat cells, apparent affinity; Jurkat cells
T1 construct: whole, on cells; also called native CD3; CD3ε

[2] = target: T1, CD3 on CD3+ Jurkat cells and primary …; assay: flow cytometry on primary human T cells, apparent affinity
[3] = target: T2, mesothelin (MSLN) on MSLN-expressing tumor cells (human, UniProt Q13421 296-598)
[4] = target: T2, mesothelin (MSLN) on MSLN-expressing …; remark: listed apart in the source
[5] = target: T2, mesothelin (MSLN) on MSLN-expressing …; assay: cell-based or functional assay
[6] = target: T1, CD3 on CD3+ Jurkat cells and primary …; assay: whole-cell flow cytometry on primary human T cells, apparent affinity
[7] = target: T2, mesothelin (MSLN) on MSLN-expressing …; remark: listed apart in the source
[8] = target: T1, CD3 on CD3+ Jurkat cells and primary …; assay: flow cytometry on primary human CD4+ T cells (anti-IgG-Fc detection, geo MFI)
[9] = target: T1, CD3 on CD3+ Jurkat cells and primary …; assay: flow cytometry on primary human CD8+ T cells (anti-IgG-Fc detection, geo MFI)
[10] = target: T2, mesothelin (MSLN) on MSLN-expressing …; assay: flow cytometry on MSLN+ OVCAR-3 cells (Alexa Fluor 647 anti-IgG-Fc, MFI)
[11] = target: T1, CD3 on CD3+ Jurkat cells and primary …; assay: cell ELISA on whole CD3+ Jurkat cells (HRP anti-human IgG Fc, A 450nm)
[12] = target: T2, mesothelin (MSLN) on MSLN-expressing …; assay: whole-cell flow cytometry on OVCAR-3 cells, apparent affinity
[13] = target: T1, CD3 on CD3+ Jurkat cells and primary …; assay: whole-cell ELISA on CD3+ Jurkat cells, apparent affinity
[14] = target: T2, mesothelin (MSLN) on MSLN-expressing …; remark: listed apart in the source
[15] = target: MSLN (form in the assay not stated) (UniProt Q13421 296-580); assay: method and antigen form not stated in Table 12
[16] = target: T2, mesothelin (MSLN) on MSLN-expressing …; assay: cell-based or functional assay; remark: listed apart in the source
[17] = target: T1, CD3 on CD3+ Jurkat cells and primary …; assay: whole-cell ELISA on CD3+ Jurkat cells, apparent affinity; main value of the cell, outside the parentheses

T2 sequence (Q13421 other isoform, or with tags, fused parts or gaps limits assumed): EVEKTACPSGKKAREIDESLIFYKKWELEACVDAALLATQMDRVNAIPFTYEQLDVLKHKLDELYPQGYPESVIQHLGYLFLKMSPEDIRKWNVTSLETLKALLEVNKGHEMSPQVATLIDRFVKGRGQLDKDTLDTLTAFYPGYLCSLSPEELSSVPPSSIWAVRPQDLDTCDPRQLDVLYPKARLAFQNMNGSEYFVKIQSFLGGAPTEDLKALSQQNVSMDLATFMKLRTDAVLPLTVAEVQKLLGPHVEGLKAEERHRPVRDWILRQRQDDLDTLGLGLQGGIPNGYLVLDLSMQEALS
T1 sequence (P07766 23-207): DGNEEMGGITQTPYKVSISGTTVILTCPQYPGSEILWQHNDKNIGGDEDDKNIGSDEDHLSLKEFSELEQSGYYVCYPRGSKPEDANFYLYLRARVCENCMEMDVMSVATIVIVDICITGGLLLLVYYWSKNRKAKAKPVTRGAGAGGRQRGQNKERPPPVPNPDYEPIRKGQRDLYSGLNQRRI
Sequence of MSLN (form in the assay not stated) (Q13421 other isoform, or with tags, fused parts or gaps limits assumed): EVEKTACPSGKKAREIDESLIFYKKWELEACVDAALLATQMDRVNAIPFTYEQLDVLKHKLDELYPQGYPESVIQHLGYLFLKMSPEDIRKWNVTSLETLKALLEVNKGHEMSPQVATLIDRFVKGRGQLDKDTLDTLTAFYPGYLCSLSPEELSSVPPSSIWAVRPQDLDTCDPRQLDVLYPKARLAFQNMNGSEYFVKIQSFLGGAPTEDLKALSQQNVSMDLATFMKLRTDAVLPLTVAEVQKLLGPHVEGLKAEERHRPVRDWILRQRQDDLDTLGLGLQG

Binder	EC50 [2]	EC50 [3]	maximum killing of BxPC3 cells [5]	EC50 [13]	Affinity to MSln [15]	IC50 of T cell-dependent cytotoxicity on OVCAR-3 cells (pan T cells, E:T 5:1, 72 h) [16]	also measured
v21791, trivalent and bispecific antibody construct [MSLN (2 Fab) x CD3 (1 Fab)] (bispecific antibody, human IgG1, kappa, lambda, L234A L235A, also called Fab^3 construct; triple-Fab construct) heavy 1: not shown heavy 2: QVQLVQSGAEVKKPGASVKVSCKASGYSFTGYTMNWVRQAPGQGLEWMGLITPYNGASSYNQKFRGKATMTVDTSTSTVYMELSSLRSEDTAVYYCARGGYDGRGFDYWGQGTLVTVSSASTKGPSVFPRAPSSKSTSGGTAALGCLVKDYFPEPVTVSWNSGALTSGVHTFPAVLQSSGLYKLSSVVTVPSSSLGTQTYICNVNHKPSNTKVDKKVEPKSCDKTHTCPPCPAPEAAGGPSVFLFPPKPKDTLMISRTPEVTCVVVSVSHEDPEVKFNWYVDGVEVHNAKTKPREEQYNSTYRVVSVLTVLHQDWLNGKEYKCKVSNKALPAPIEKTISKAKGQPREPQVYVLPPSRDELTKNQVSLLCLVKGFYPSDIAVEWESNGQPENNYLTWPPVLDSDGSFFLYSKLTVDKSRWQQGNVFSCSVMHEALHNHYTQKSLSLSPG light 1: NFMLTQPHSVSESPGKTVTISCKRNTGNIGSNYVNWYQQHEGSSPTTIIYRNDKRPDGVSDRFSGSIDRSSKSASLTISNLKTEDEADYFCQSYSSGFIFGGGTKLTVLGQPKAAPSVTLFPPSSEQLQANKARLVCLISDFYPGAVTVAWKADSSPVKAGVETTTPSKQSNNKYAASSYLSLTPEQWKSHKSYSCQVTHEGSTVEKTVAPAECS light 2: DIQMTQSPSSLSASVGDRVTITCSASSSVSYMHWYQQKSGKAPKLLIYDTSKLASGVPSRFSGSGSGTDFTLTISSLQPEDFATYYCQQWSGYPLTFGQGTKLEIKRTVAAPSVFIFPPSDEQLKSGTASVGCWLNNFYPREAKVQWKVDNALQSGNSQESVTEQDSKDSTYSLDSTLELSKADYEKHKVYACEVTHQGLSSPVTKSFNRGEC	7.4 nM	1.9 nM	60%	–	–	–	EC50 [1]: 402 nM; EC50 (read off the curve) [4]: ~0.7 nM
v31926, negative control antibody [Hemagglutinin (HA) (2 scFv) x CD3 (1 Fab)] (bispecific antibody) heavy 1: not shown heavy 2: QVQLVQSGAEVKKPGASVRVSCRASGYIFTESGITWVRQAPGQGLEWMGWISGYSGDTKYAQKLQGRVTMTKDTSTTTAYMELRSLRYDDTAVYYCARDVQYSGSYLGAYYFDYWSPGTLVTVSSGGGGSGGGGSGGGGSGGGQSVLTQPPSASGTPGQRVTISCSGSSSNIGTNYVYWYQQFPGTAPKLLIYRSYQRPSGVPDRFSGSKSGSSASLAISGLQSEDEADYYCATWDDSLDGWVFGGGTKLTVLAAEPKSSDKTHTCPPCPAPEAAGGPSVFLFPPKPKDTLMISRTPEVTCVVVSVSHEDPEVKFNWYVDGVEVHNAKTKPREEQYNSTYRVVSVLTVLHQDWLNGKEYKCKVSNKALPAPIEKTISKAKGQPREPQVYVLPPSRDELTKNQVSLLCLVKGFYPSDIAVEWESNGQPENNYLTWPPVLDSDGSFFLYSKLTVDKSRWQQGNVFSCSVMHEALHNHYTQKSLSLSPG light: NFMLTQPHSVSESPGKTVTISCKRNTGNIGSNYVNWYQQHEGSSPTTIIYRNDKRPDGVSDRFSGSIDRSSKSASLTISNLKTEDEADYFCQSYSSGFIFGGGTKLTVLGQPKAAPSVTLFPPSSEELQANKATLVCLISDFYPGAVTVAWKADSSPVKAGVETTTPSKQSNNKYAASSYLSLTPEQWKSHRSYSCQVTHEGSTVEKTVAPTECS	–	–	–	–	–	–	EC50 [6]: 102 nM
v21815, bivalent and bispecific antibody construct [MSLN (1 Fab) x CD3 (1 scFv)] (bispecific antibody, human IgG1, kappa, L234A L235A, also called 1x1 construct; 1+1 anti-CD3 scFv x anti-MSLN Fab construct) heavy 1: not shown heavy 2: QVQLVQSGAEVKKPGASVKVSCKASGYSFTGYTMNWVRQAPGQGLEWMGLITPYNGASSYNQKFRGKATMTVDTSTSTVYMELSSLRSEDTAVYYCARGGYDGRGFDYWGQGTLVTVSSASTKGPSVFPLAPSSKSTSGGTAALGCLVKDYFPEPVTVSWNSGALTSGVHTFPAVLQSSGLYSLSSVVTVPSSSLGTQTYICNVNHKPSNTKVDKKVEPKSCDKTHTCPPCPAPEAAGGPSVFLFPPKPKDTLMISRTPEVTCVVVSVSHEDPEVKFNWYVDGVEVHNAKTKPREEQYNSTYRVVSVLTVLHQDWLNGKEYKCKVSNKALPAPIEKTISKAKGQPREPQVYVLPPSRDELTKNQVSLLCLVKGFYPSDIAVEWESNGQPENNYLTWPPVLDSDGSFFLYSKLTVDKSRWQQGNVFSCSVMHEALHNHYTQKSLSLSPG light: DIQMTQSPSSLSASVGDRVTITCSASSSVSYMHWYQQKSGKAPKLLIYDTSKLASGVPSRFSGSGSGTDFTLTISSLQPEDFATYYCQQWSGYPLTFGQGTKLEIKRTVAAPSVFIFPPSDEQLKSGTASVVCLLNNFYPREAKVQWKVDNALQSGNSQESVTEQDSKDSTYSLSSTLTLSKADYEKHKVYACEVTHQGLSSPVTKSFNRGEC	0.2 nM	1.7 nM	35%	2.4 nM	–	–	Kd [7]: ~1.73 nM; EC50 (read off the curve) [8]: ~2 nM; EC50 (read off the curve) [9]: ~2 nM; EC50 (read off the curve) [10]: ~7 nM; EC50 (read off the curve) [11]: ~2 nM; EC50 [12]: 6.7 nM; EC50 (read off the curve) [14]: ~2 nM
v29045, trivalent and bispecific antibody construct [MSLN (2 scFv) x CD3 (1 Fab)] (bispecific antibody, human IgG1, lambda, L234A L235A) heavy 1: not shown heavy 2: QVQLVQSGAEVKKPGASVKISCKASGYSFTGYTMNWVRQAPGQGLEWIGLITPYSGASSYAQKFQGRATLTVDKSTSTAYMELSSLRSEDTAVYYCARGGYDGRGFDYWGQGTLVTVSSGGGGSGGGGSGGGGSEIVLTQSPATLSLSPGERVTMSCSASSSVSYMHWYQQKPGQAPRLWIYDTSKLASGVPARFSGSGSGTDYTLTISSVEPEDFAVYYCQQWSGYPLTFGQGTKVEIKAAEPKSSDKTHTCPPCPAPEAAGGPSVFLFPPKPKDTLMISRTPEVTCVVVSVSHEDPEVKFNWYVDGVEVHNAKTKPREEQYNSTYRVVSVLTVLHQDWLNGKEYKCKVSNKALPAPIEKTISKAKGQPREPQVYVLPPSRDELTKNQVSLLCLVKGFYPSDIAVEWESNGQPENNYLTWPPVLDSDGSFFLYSKLTVDKSRWQQGNVFSCSVMHEALHNHYTQKSLSLSPG light: NFMLTQPHSVSESPGKTVTISCKRNTGNIGSNYVNWYQQHEGSSPTTIIYRNDKRPDGVSDRFSGSIDRSSKSASLTISNLKTEDEADYFCQSYSSGFIFGGGTKLTVLGQPKAAPSVTLFPPSSEELQANKATLVCLISDFYPGAVTVAWKADSSPVKAGVETTTPSKQSNNKYAASSYLSLTPEQWKSHRSYSCQVTHEGSTVEKTVAPTECS	–	0.4 nM	–	1.3 nM	62.6 nM	0.0272 nM	–
v29048, trivalent and bispecific antibody construct [MSLN (2 scFv) x CD3 (1 Fab)] (bispecific antibody, human IgG1, lambda, L234A L235A) heavy 1: not shown heavy 2: EVQLLESGGGLVQPGGSVRISCAASGYSFTGYTMNWVRQAPGKGLEWIGLITPYSGASSYADSFKGRATLSVDNSKNTAYMQLNSLRAEDTAVYYCARGGYDGRGFDYWGQGTLVTVSSGGGGSGGGGSGGGGSDIQLTQSPSSLSASVGDRVTMTCSASSSVSYMHWYQQKPGKAPKLWIYDTSKLASGVPSRFSGSGSGTDYTLTISSVQPEDFATYYCQQWSKHPLTFGQGTKVEIKAAEPKSSDKTHTCPPCPAPEAAGGPSVFLFPPKPKDTLMISRTPEVTCVVVSVSHEDPEVKFNWYVDGVEVHNAKTKPREEQYNSTYRVVSVLTVLHQDWLNGKEYKCKVSNKALPAPIEKTISKAKGQPREPQVYVLPPSRDELTKNQVSLLCLVKGFYPSDIAVEWESNGQPENNYLTWPPVLDSDGSFFLYSKLTVDKSRWQQGNVFSCSVMHEALHNHYTQKSLSLSPG light: NFMLTQPHSVSESPGKTVTISCKRNTGNIGSNYVNWYQQHEGSSPTTIIYRNDKRPDGVSDRFSGSIDRSSKSASLTISNLKTEDEADYFCQSYSSGFIFGGGTKLTVLGQPKAAPSVTLFPPSSEELQANKATLVCLISDFYPGAVTVAWKADSSPVKAGVETTTPSKQSNNKYAASSYLSLTPEQWKSHRSYSCQVTHEGSTVEKTVAPTECS	183 nM	0.5 nM	–	–	9.8 nM	0.0004 nM	EC50 [17]: 5.5 nM
v18490, anti-MSLN antibody (mAb, MSLN (SS) Fab x 2) (antibody, human IgG1, kappa, L234A L235A) heavy 1: QVQLVQSGAEVKKPGASVKVSCKASGYSFTGYTMNWVRQAPGQGLEWMGLITPYNGASSYNQKFRGKATMTVDTSTSTVYMELSSLRSEDTAVYYCARGGYDGRGFDYWGQGTLVTVSSASTKGPSVFPLAPSSKSTSGGTAALGCLVKDYFPEPVTVSWNSGALTSGVHTFPAVLQSSGLYSLSSVVTVPSSSLGTQTYICNVNHKPSNTKVDKKVEPKSCDKTHTCPPCPAPEAAGGPSVFLFPPKPKDTLMISRTPEVTCVVVSVSHEDPEVKFNWYVDGVEVHNAKTKPREEQYNSTYRVVSVLTVLHQDWLNGKEYKCKVSNKALPAPIEKTISKAKGQPREPQVYVLPPSRDELTKNQVSLLCLVKGFYPSDIAVEWESNGQPENNYLTWPPVLDSDGSFFLYSKLTVDKSRWQQGNVFSCSVMHEALHNHYTQKSLSLSPG heavy 2: not shown light: DIQMTQSPSSLSASVGDRVTITCSASSSVSYMHWYQQKSGKAPKLLIYDTSKLASGVPSRFSGSGSGTDFTLTISSLQPEDFATYYCQQWSGYPLTFGQGTKLEIKRTVAAPSVFIFPPSDEQLKSGTASVVCLLNNFYPREAKVQWKVDNALQSGNSQESVTEQDSKDSTYSLSSTLTLSKADYEKHKVYACEVTHQGLSSPVTKSFNRGEC	–	1.6 nM	–	–	–	–	–

From patent US20240327516A1 (Zymeworks, published 2024)
